According to patent publication US6566047B1, “Method for identifying neurite-growth promoting agents” (The Regents of the University of Colorado, priority 1998, dated 2003):

B1: BDNF: brain-derived neurotrophic factor (protein, UniProt P23560 19-247, looked up)
Neurotrophic factor BDNF …: APMKEANIRGQGGLAYPGVRTHGTLESVNGPKAGSRGLTSLADTFEHVIEELLDEDQKVRPNEENNKDADLYTSRVMLSSQVPLEPPLLFLLEEYKNYLDAANMSMRVRRHSDPARRGELSVCDSISEWVTAADKKTAVDMSGGTVTVLEKVPVSKGQLKQYFYETKCNPMGYTKEGCRGIDKRHWNSQCRTTQSYVRALTMDSKKRIGWRFIRIDTSCVCTLTIKRGR
B2: SemaIV: recombinant semaphorin IV, repellent and putative tumor suppressor (protein, UniProt Q13275 19-785, looked up)
Semaphorin-3F: SFPTQDHLPATPRVRLSFKELKATGTAHFFNFLLNTTDYRILLKDEDHDRMYVGSKDYVLSLDLHDINREPLIIHWAASPQRIEECVLSGKDVNGECGNFVRLIQPWNRTHLYVCGTGAYNPMCTYVNRGRRAQATPWTQTQAVRGRGSRATDGALRPMPTAPRQDYIFYLEPERLESGKGKCPYDPKLDTASALINEELYAGVYIDFMGTDAAIFRTLGKQTAMRTDQYNSRWLNDPSFIHAELIPDSAERNDDKLYFFFRERSAEAPQSPAVYARIGRICLNDDGGHCCLVNKWSTFLKARLVCSVPGEDGIETHFDELQDVFVQQTQDVRNPVIYAVFTSSGSVFRGSAVCVYSMADIRMVFNGPFAHKEGPNYQWMPFSGKMPYPRPGTCPGGTFTPSMKSTKDYPDEVINFMRSHPLMYQAVYPLQRRPLVVRTGAPYRLTTIAVDQVDAADGRYEVLFLGTDRGTVQKVIVLPKDDQELEELMLEEVEVFKDPAPVKTMTISSKRQQLYVASAVGVTHLSLHRCQAYGAACADCCLARDPYCAWDGQACSRYTASSKRRSRRQDVRHGNPIRQCRGFNSNANKNAVESVQYGVAGSAAFLECQPRSPQATVKWLFQRDPGDRRREIRAEDRFLRTEQGLLLRALQLSDRGLYSCTATENNFKHVVTRVQLHVLGRDAVHAALFPPLSMSAPPPPGAGPPTPPYQELAQLLAQPEVGLIHQYCQGYWRHVPPSPREAPGAPRSPEPQDQKKPRNRRHHPPDT

Assays:
growth cone PLA2 = assay: PLA2 assay in growth cone particles (GCPs); type: biochemical, rat; conditions: GCPs
Description: Growth Cone Particle (GCP) Isolation. GCPs were prepared as described by Pfenninger et al. (1983) and modified by Lohse et al., Dev. Brain Res., 96:38-96 (1996). Briefly, 18-day fetal brains were homogenized in approximately 8 volumes of 0.32 M sucrose containing 1 mM MgCl2, 2 mM TES buffer, pH 7.3, and 3 μM aprotinin. A low-speed supernatant (1,660 g×15 min) was loaded onto a discontinuous sucrose density gradient With steps of 0.83 M and 2.66 M sucrose containing MgCl2 and TES. The gradients were spun to equilibrium at 242,000 g for 40 min in a vertical rotor (Vti50, Beckman). The GCP fraction at the 0.32/0.83 M sucrose interface was collected and used for the experiments described below.
All assays were run in triplicate.

cPLA2 = assay: PLA2 activity (14C-AA release) in MAT-Lu cells; type: biochemical, rat; conditions: dose-dependent
Description: MAT-Lu cells were plated at a density of 0.5×10^6 cells per flask (T-75) and grown as detailed above to approximately 25% confluency. On the day before the experiments, the serum level in the medium was dropped to 1%. Cells were fed with fresh 1% serum-medium 4 hrs prior to harvest. For harvesting, cells were rinsed with Ca^++,Mg^++-free HBSS, covered with 2 ml cold Ca^++-free modified Krebs buffer (220 mM sucrose, 50 mM NaCl, 5 mM KCl, 22 mM HEPES, 10 mM glucose. 1.2 mM NaH2PO4 and 1.2 mM MgCl2, pH 7.3), and placed on ice. Cells were scraped off, pelleted for 5 min at 200 rpm and re-suspended in a minimal volume of Krebs buffer. Aliquots were used to determine protein concentration (Biorad Assay) and phopholipase activity. To measure PLA2 activity 10-12 μg of cell protein was incubated with or without thrombin for 10 min on ice, ^14C-AA-labeled phospholipid substrate (7 μM. 40-60 mCi/mmol) was added, and the mixture was transferred to 37° for 20 min. The reaction was stopped by adding cold cliloroform/methanol (1:2 v/v). Lipid extraction followed by thin-layer chromatography (Negre-Aminou et al., J Neurochem 67:2599-2608 (1996)) isolated the reaction product (identified by co-migration with AA standard), which was then scraped off the plates and analyzed in a scintillation spectrometer (Beckman). In some experiments, especially those involving ^14C-AA-phosphatidylinositol as substrate, the diacylglycerol-containing band (identified by co-migration of standard) also was scraped and counted in order to measure phospholipase C (PLC) activity.

MAT-Lu cells = assay: Pseudopod morphometry (pseudopod length assay), MAT-Lu cells; type: cell-based, rat; conditions: typically 15 min exposure
Description: Pseudopod Morphometry. To study the effects of various agents on pseudopods on a short-term basis, we measured pseudopod lengths. Cells plated in 35-mm diameter dishes at low density (1×10^4 per dish) were incubated overnight, tie medium was changed, and the experiments were run four hours later. First, cultures were shifted to serum-free medium, which was replaced one hour later by serum-free medium with or without the various agents (thrombin, AA or HETEs). Care was taken to avoid heat and light inactivation of the eicosanoids. Culture dishes were placed on a Zeiss inverted microscope equipped with a heated stage and viewed with a 16×phase contrast objective lens. Randomly selected fields of the cultures, containing generally about 20 cells each, were recorded, digitized and stored in the computer at the onset of the experiment and at different times thereafter.
In some cases, individual cells were monitored over different periods of time immediately after introduction of the reagent, either by mixing it into the medium or by applying it locally to one end of the cell. […] Cell morphology was recorded, and the captured images were analyzed with a Power Macintosh computer using NIH Image. Cell process length was measured from the center of the nucleus to the end of the process. […]

Molecule | activation of growth cone cPLA2/PLA2 (growth cone PLA2) | net activity (pmol/min/mg protein) (growth cone PLA2; Table 3c, substrate PI, BDNF 100, IGF-1 0.75, insulin 1, thrombin 200 nM, control 159 ± 6.2) | increase of cPLA2-PE activity (cPLA2) | effect of agent alone on pseudopod length (MAT-Lu cells)
B1 | did not significantly stimulate PLA2 activity | 164 ± 10.6 | – | –
B2 | dose-dependent activation of growth cone cPLA2 | – | several fold | causes pseudopod retraction in MAT-Lu cells
